Measured values reported in paper PMC6586891, “On the molecular and cellular effects of omeprazole to further support its effectiveness as an antigiardial drug” (Scientific Reports, 2019).

Test system: O=CC(O)COP(=O)(O)O
Test: Michaelis-Menten kinetics of purified enzyme (Km), coupled alpha-GDH/NADH assay
Type: biochemical, Giardia duodenalis

Giardia lamblia triosephosphate isomerase (GlTIM Tmut) (Giardia duodenalis; C202A/C222A/C228A)
Km: 1200 ± 90 µM
kcat/Km: 1.92e+06 M⁻¹ s⁻¹
